Data from patent publication US20260022160A1 (AFFYXELL THERAPEUTICS, published 2026).
Several values for one entry are separate records, joined by “and”; a condition that tells them apart may be missing. Equal values may be shown once.

Assays:
[1] = biological target: T1, human Mega CD40L recombinant protein (Enzo Lifesciences) (human, UniProt P29965 116-261); test: cell-based or functional assay
T1 sequence (looked up): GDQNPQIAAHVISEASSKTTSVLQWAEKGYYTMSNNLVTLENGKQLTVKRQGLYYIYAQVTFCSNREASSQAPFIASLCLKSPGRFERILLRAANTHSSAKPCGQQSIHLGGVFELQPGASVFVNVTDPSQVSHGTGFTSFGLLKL

[2] = biological target: T1, human Mega CD40L recombinant protein …; test: cell-based or functional assay; remark: listed apart in the source
[3] = biological target: T2, recombinant human CD40L (R&D Systems, 6420-CL-025/CF) (human, UniProt P29965 108-261, limits assumed); test: binding ELISA, plate-coated recombinant human CD40L, concentrated culture fluid; first-named of the two gene-introduced cell lines (two promoters); promoter not told
T2 sequence (looked up): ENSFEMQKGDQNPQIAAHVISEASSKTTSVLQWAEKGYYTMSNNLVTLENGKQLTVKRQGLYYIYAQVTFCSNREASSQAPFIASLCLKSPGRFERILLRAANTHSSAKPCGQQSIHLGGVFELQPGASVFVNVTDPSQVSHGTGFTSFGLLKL
Experimental: (§1) Each cell line was inoculated into a T175 flask at a cell density of 4.0×10³ cells/cm² using a culture medium. After culture at 37° C. and 5% CO₂ for 18 to 24 hours, the culture medium was thoroughly replaced with a fresh culture medium every 2 days, followed by culture. After culture for 3 days, the cells were harvested, and 7.0×10⁶ cells were inoculated into a T175 flask, followed by culture at 37° C. and 5% CO₂ for 18 to 24 hours. The culture medium was thoroughly removed, and the remaining medium was completely removed through washing with 10 mL of MEM alpha. 30 mL of an MEM alpha medium was added to a T175 flask, followed by culture for 48 hours. After 48 hours, all of the cell culture fluid was harvested and then centrifuged to remove residual cells and impurities. The cell culture fluid was transferred to a Vivaspin 20 and centrifuged, the culture fluid was concentrated, and the stefin A protein variant was quantified through sandwich ELISA (LSBio, LS-F4620). […] The unbound stefin A protein variant was removed through washing, after which the extent of binding between the stefin A protein variant and CD40L was detected based on a difference in absorbance resulting from reaction with a TMB substrate.

[4] = biological target: T2, recombinant human CD40L (R&D Systems, …); test: binding ELISA, plate-coated recombinant human CD40L, concentrated culture fluid; second-named of the two gene-introduced cell lines (two promoters); promoter not told
Experimental: as §1

B1: XT75 anti-CD40L stefin A protein variant secreted by gene-introduced MSC (eMSC) (designed binder)
chain: IPGGLSEAKPATPEIQEIVDKVKPQLEEKTGETYGKLEAVQYKTQVVHYYVHYNDQGTNYYIKVRAGDNKYMHLKVFKSLWGENLFAKWEDLVLTGYQVDKNKDDELTGFAEAAAKEAAAKEAAAKEAAAKEAAAKEAAAKMIPGGLSEAKPATPEIQEIVDKVKPQLEEKTGETYGKLEAVQYKTQVVHYYVHYNDQGTNYYIKVRAGDNKYMHLKVFKSLWGENLFAKWEDLVLTGYQVDKNKDDELTGFAEAAAKEAAAKEAAAKEAAAKEAAAKEAAAKMIPGGLSEAKPATPEIQEIVDKVKPQLEEKTGETYGKLEAVQYKTQVVHYYVHYNDQGTNYYIKVRAGDNKYMHLKVFKSLWGENLFAKWEDLVLTGYQVDKNKDDELTGFAEAAAKEAAAKEAAAKEAAAKEAAAKEAAAKMIPRGLSEAKPATPEIQEIVDKVKPQLEEKTGETYGKLEAVQYKTQVLANFFQRRWPGSTNYYIKVRAGDNKYMHLKVFNGPWKFRNTDRGADRVLTGYQVDKNKDDELTGF
notes: also called eMSC (XT75, w/EF1A); eMSC (XT75, w/CBh)
[1]
  IC50, HEK-Blue CD40L cell assay: 0.303 nM and 0.4 nM
[2]
  IC50 (read off the curve): ~0.3 nM and ~0.4 nM
[3]
  EC50: 0.0039 nM
[4]
  EC50: 0.0053 nM
